Assay results as given in US12679878B2, “CRF2 receptor agonists and their use in therapy” (SANOFI, priority 2020, dated 2026).
Starred links: 1 amine or outer side, 2 acyl side, 3 side chain; linkers in the order of their positions; H or OH if unused. Non-standard residues stand in square brackets, D forms with d. Groups on a side chain read outwards from the residue. No end group written: not given here. *: point of attachment. C16 diacid = O=C(O)CCCCCCCCCCCCCCC(=O)*; γGlu = O=C(O)[C@H](CCC(=O)[*:2])N[*:1]; Palmitoyl = CCCCCCCCCCCCCCCC(=O)*; Aib = CC(C)(N)C(=O)O

T1: CRF1R receptor (anti-target) (UniProt P34998 24-415, limits assumed)
T1 sequence (looked up): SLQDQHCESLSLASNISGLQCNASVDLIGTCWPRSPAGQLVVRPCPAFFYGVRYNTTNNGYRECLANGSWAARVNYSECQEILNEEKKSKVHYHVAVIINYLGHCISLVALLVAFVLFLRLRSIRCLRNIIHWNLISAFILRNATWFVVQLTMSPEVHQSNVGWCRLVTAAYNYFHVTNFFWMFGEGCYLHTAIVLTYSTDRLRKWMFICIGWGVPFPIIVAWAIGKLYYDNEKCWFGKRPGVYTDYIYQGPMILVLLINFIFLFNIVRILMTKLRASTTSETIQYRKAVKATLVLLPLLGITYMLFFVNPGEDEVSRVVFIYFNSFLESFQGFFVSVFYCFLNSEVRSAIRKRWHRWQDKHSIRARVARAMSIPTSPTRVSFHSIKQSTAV

B1: peptide of SEQ ID NO: 192 (peptide)
peptide: IVLSLD[dV]PIKLK([γGlu-C16 diacid])QILLKQERQKKQRQQAEKNKQILAQV-NH2
modifications: N-terminus assumed
SMILES: CC[C@H](C)[C@H](N)C(=O)N[C@H](C(=O)N[C@@H](CC(C)C)C(=O)N[C@@H](CO)C(=O)N[C@@H](CC(C)C)C(=O)N[C@@H](CC(=O)O)C(=O)N[C@@H](C(=O)N1CCC[C@H]1C(=O)N[C@H](C(=O)N[C@@H](CCCCN)C(=O)N[C@@H](CC(C)C)C(=O)N[C@@H](CCCCNC(=O)CC[C@H](NC(=O)CCCCCCCCCCCCCCC(=O)O)C(=O)O)C(=O)N[C@@H](CCC(N)=O)C(=O)N[C@H](C(=O)N[C@@H](CC(C)C)C(=O)N[C@@H](CC(C)C)C(=O)N[C@@H](CCCCN)C(=O)N[C@@H](CCC(N)=O)C(=O)N[C@@H](CCC(=O)O)C(=O)N[C@@H](CCCNC(=N)N)C(=O)N[C@@H](CCC(N)=O)C(=O)N[C@@H](CCCCN)C(=O)N[C@@H](CCCCN)C(=O)N[C@@H](CCC(N)=O)C(=O)N[C@@H](CCCNC(=N)N)C(=O)N[C@@H](CCC(N)=O)C(=O)N[C@@H](CCC(N)=O)C(=O)N[C@@H](C)C(=O)N[C@@H](CCC(=O)O)C(=O)N[C@@H](CCCCN)C(=O)N[C@@H](CC(N)=O)C(=O)N[C@@H](CCCCN)C(=O)N[C@@H](CCC(N)=O)C(=O)N[C@H](C(=O)N[C@@H](CC(C)C)C(=O)N[C@@H](C)C(=O)N[C@@H](CCC(N)=O)C(=O)N[C@H](C(N)=O)C(C)C)[C@@H](C)CC)[C@@H](C)CC)[C@@H](C)CC)C(C)C)C(C)C
B2: peptide of SEQ ID NO: 204 (peptide)
peptide: IVLSLD[dV]PIKLK([γGlu-Palmitoyl])QILLKQERQK[Aib]QREQAEKNKQILAQV-NH2
modifications: N-terminus assumed
SMILES: CCCCCCCCCCCCCCCC(=O)N[C@@H](CCC(=O)NCCCC[C@H](NC(=O)[C@H](CC(C)C)NC(=O)[C@H](CCCCN)NC(=O)[C@@H](NC(=O)[C@@H]1CCCN1C(=O)[C@H](NC(=O)[C@H](CC(=O)O)NC(=O)[C@H](CC(C)C)NC(=O)[C@H](CO)NC(=O)[C@H](CC(C)C)NC(=O)[C@@H](NC(=O)[C@@H](N)[C@@H](C)CC)C(C)C)C(C)C)[C@@H](C)CC)C(=O)N[C@@H](CCC(N)=O)C(=O)N[C@H](C(=O)N[C@@H](CC(C)C)C(=O)N[C@@H](CC(C)C)C(=O)N[C@@H](CCCCN)C(=O)N[C@@H](CCC(N)=O)C(=O)N[C@@H](CCC(=O)O)C(=O)N[C@@H](CCCNC(=N)N)C(=O)N[C@@H](CCC(N)=O)C(=O)N[C@@H](CCCCN)C(=O)NC(C)(C)C(=O)N[C@@H](CCC(N)=O)C(=O)N[C@@H](CCCNC(=N)N)C(=O)N[C@@H](CCC(=O)O)C(=O)N[C@@H](CCC(N)=O)C(=O)N[C@@H](C)C(=O)N[C@@H](CCC(=O)O)C(=O)N[C@@H](CCCCN)C(=O)N[C@@H](CC(N)=O)C(=O)N[C@@H](CCCCN)C(=O)N[C@@H](CCC(N)=O)C(=O)N[C@H](C(=O)N[C@@H](CC(C)C)C(=O)N[C@@H](C)C(=O)N[C@@H](CCC(N)=O)C(=O)N[C@H](C(N)=O)C(C)C)[C@@H](C)CC)[C@@H](C)CC)C(=O)O
B3: peptide of SEQ ID NO: 197 (peptide)
peptide: IVLSLD[dV]PIKLK([γGlu-C16 diacid])QILLKQARQK[Aib]QRAQAEKNKRILERV-NH2
modifications: N-terminus assumed
SMILES: CC[C@H](C)[C@H](N)C(=O)N[C@H](C(=O)N[C@@H](CC(C)C)C(=O)N[C@@H](CO)C(=O)N[C@@H](CC(C)C)C(=O)N[C@@H](CC(=O)O)C(=O)N[C@@H](C(=O)N1CCC[C@H]1C(=O)N[C@H](C(=O)N[C@@H](CCCCN)C(=O)N[C@@H](CC(C)C)C(=O)N[C@@H](CCCCNC(=O)CC[C@H](NC(=O)CCCCCCCCCCCCCCC(=O)O)C(=O)O)C(=O)N[C@@H](CCC(N)=O)C(=O)N[C@H](C(=O)N[C@@H](CC(C)C)C(=O)N[C@@H](CC(C)C)C(=O)N[C@@H](CCCCN)C(=O)N[C@@H](CCC(N)=O)C(=O)N[C@@H](C)C(=O)N[C@@H](CCCNC(=N)N)C(=O)N[C@@H](CCC(N)=O)C(=O)N[C@@H](CCCCN)C(=O)NC(C)(C)C(=O)N[C@@H](CCC(N)=O)C(=O)N[C@@H](CCCNC(=N)N)C(=O)N[C@@H](C)C(=O)N[C@@H](CCC(N)=O)C(=O)N[C@@H](C)C(=O)N[C@@H](CCC(=O)O)C(=O)N[C@@H](CCCCN)C(=O)N[C@@H](CC(N)=O)C(=O)N[C@@H](CCCCN)C(=O)N[C@@H](CCCNC(=N)N)C(=O)N[C@H](C(=O)N[C@@H](CC(C)C)C(=O)N[C@@H](CCC(=O)O)C(=O)N[C@@H](CCCNC(=N)N)C(=O)N[C@H](C(N)=O)C(C)C)[C@@H](C)CC)[C@@H](C)CC)[C@@H](C)CC)C(C)C)C(C)C
B4: peptide of SEQ ID NO: 207 (peptide)
peptide: IVLSLD[dV]PIGLK([γGlu-Palmitoyl])QILLKQERQKK[Aib]REQAETNKRILERV-NH2
modifications: N-terminus assumed
SMILES: CCCCCCCCCCCCCCCC(=O)N[C@@H](CCC(=O)NCCCC[C@H](NC(=O)[C@H](CC(C)C)NC(=O)CNC(=O)[C@@H](NC(=O)[C@@H]1CCCN1C(=O)[C@H](NC(=O)[C@H](CC(=O)O)NC(=O)[C@H](CC(C)C)NC(=O)[C@H](CO)NC(=O)[C@H](CC(C)C)NC(=O)[C@@H](NC(=O)[C@@H](N)[C@@H](C)CC)C(C)C)C(C)C)[C@@H](C)CC)C(=O)N[C@@H](CCC(N)=O)C(=O)N[C@H](C(=O)N[C@@H](CC(C)C)C(=O)N[C@@H](CC(C)C)C(=O)N[C@@H](CCCCN)C(=O)N[C@@H](CCC(N)=O)C(=O)N[C@@H](CCC(=O)O)C(=O)N[C@@H](CCCNC(=N)N)C(=O)N[C@@H](CCC(N)=O)C(=O)N[C@@H](CCCCN)C(=O)N[C@@H](CCCCN)C(=O)NC(C)(C)C(=O)N[C@@H](CCCNC(=N)N)C(=O)N[C@@H](CCC(=O)O)C(=O)N[C@@H](CCC(N)=O)C(=O)N[C@@H](C)C(=O)N[C@@H](CCC(=O)O)C(=O)N[C@H](C(=O)N[C@@H](CC(N)=O)C(=O)N[C@@H](CCCCN)C(=O)N[C@@H](CCCNC(=N)N)C(=O)N[C@H](C(=O)N[C@@H](CC(C)C)C(=O)N[C@@H](CCC(=O)O)C(=O)N[C@@H](CCCNC(=N)N)C(=O)N[C@H](C(N)=O)C(C)C)[C@@H](C)CC)[C@@H](C)O)[C@@H](C)CC)C(=O)O
B5: peptide of SEQ ID NO: 188 (peptide)
peptide: IVLSLD[dV]PIKLK([γGlu-C16 diacid])QILLKQERQK[Aib]QRQQAEKNKQILAQV-NH2
modifications: N-terminus assumed
SMILES: CC[C@H](C)[C@H](N)C(=O)N[C@H](C(=O)N[C@@H](CC(C)C)C(=O)N[C@@H](CO)C(=O)N[C@@H](CC(C)C)C(=O)N[C@@H](CC(=O)O)C(=O)N[C@@H](C(=O)N1CCC[C@H]1C(=O)N[C@H](C(=O)N[C@@H](CCCCN)C(=O)N[C@@H](CC(C)C)C(=O)N[C@@H](CCCCNC(=O)CC[C@H](NC(=O)CCCCCCCCCCCCCCC(=O)O)C(=O)O)C(=O)N[C@@H](CCC(N)=O)C(=O)N[C@H](C(=O)N[C@@H](CC(C)C)C(=O)N[C@@H](CC(C)C)C(=O)N[C@@H](CCCCN)C(=O)N[C@@H](CCC(N)=O)C(=O)N[C@@H](CCC(=O)O)C(=O)N[C@@H](CCCNC(=N)N)C(=O)N[C@@H](CCC(N)=O)C(=O)N[C@@H](CCCCN)C(=O)NC(C)(C)C(=O)N[C@@H](CCC(N)=O)C(=O)N[C@@H](CCCNC(=N)N)C(=O)N[C@@H](CCC(N)=O)C(=O)N[C@@H](CCC(N)=O)C(=O)N[C@@H](C)C(=O)N[C@@H](CCC(=O)O)C(=O)N[C@@H](CCCCN)C(=O)N[C@@H](CC(N)=O)C(=O)N[C@@H](CCCCN)C(=O)N[C@@H](CCC(N)=O)C(=O)N[C@H](C(=O)N[C@@H](CC(C)C)C(=O)N[C@@H](C)C(=O)N[C@@H](CCC(N)=O)C(=O)N[C@H](C(N)=O)C(C)C)[C@@H](C)CC)[C@@H](C)CC)[C@@H](C)CC)C(C)C)C(C)C
B6: peptide of SEQ ID NO: 208 (peptide)
peptide: IVLSLD[dV]PIKLK([γGlu-Palmitoyl])QILLKQERQK[Aib]QRQQAEKNKQILAQV-NH2
modifications: N-terminus assumed
SMILES: CCCCCCCCCCCCCCCC(=O)N[C@@H](CCC(=O)NCCCC[C@H](NC(=O)[C@H](CC(C)C)NC(=O)[C@H](CCCCN)NC(=O)[C@@H](NC(=O)[C@@H]1CCCN1C(=O)[C@H](NC(=O)[C@H](CC(=O)O)NC(=O)[C@H](CC(C)C)NC(=O)[C@H](CO)NC(=O)[C@H](CC(C)C)NC(=O)[C@@H](NC(=O)[C@@H](N)[C@@H](C)CC)C(C)C)C(C)C)[C@@H](C)CC)C(=O)N[C@@H](CCC(N)=O)C(=O)N[C@H](C(=O)N[C@@H](CC(C)C)C(=O)N[C@@H](CC(C)C)C(=O)N[C@@H](CCCCN)C(=O)N[C@@H](CCC(N)=O)C(=O)N[C@@H](CCC(=O)O)C(=O)N[C@@H](CCCNC(=N)N)C(=O)N[C@@H](CCC(N)=O)C(=O)N[C@@H](CCCCN)C(=O)NC(C)(C)C(=O)N[C@@H](CCC(N)=O)C(=O)N[C@@H](CCCNC(=N)N)C(=O)N[C@@H](CCC(N)=O)C(=O)N[C@@H](CCC(N)=O)C(=O)N[C@@H](C)C(=O)N[C@@H](CCC(=O)O)C(=O)N[C@@H](CCCCN)C(=O)N[C@@H](CC(N)=O)C(=O)N[C@@H](CCCCN)C(=O)N[C@@H](CCC(N)=O)C(=O)N[C@H](C(=O)N[C@@H](CC(C)C)C(=O)N[C@@H](C)C(=O)N[C@@H](CCC(N)=O)C(=O)N[C@H](C(N)=O)C(C)C)[C@@H](C)CC)[C@@H](C)CC)C(=O)O

Each binder was assayed against human corticotropin-releasing factor 2α (CRF2α receptor) (human), Q13324 (assay: cell-based or functional assay).
Sequence of human corticotropin-releasing factor 2α (CRF2α receptor) (human), Q13324 (Q13324 20-411): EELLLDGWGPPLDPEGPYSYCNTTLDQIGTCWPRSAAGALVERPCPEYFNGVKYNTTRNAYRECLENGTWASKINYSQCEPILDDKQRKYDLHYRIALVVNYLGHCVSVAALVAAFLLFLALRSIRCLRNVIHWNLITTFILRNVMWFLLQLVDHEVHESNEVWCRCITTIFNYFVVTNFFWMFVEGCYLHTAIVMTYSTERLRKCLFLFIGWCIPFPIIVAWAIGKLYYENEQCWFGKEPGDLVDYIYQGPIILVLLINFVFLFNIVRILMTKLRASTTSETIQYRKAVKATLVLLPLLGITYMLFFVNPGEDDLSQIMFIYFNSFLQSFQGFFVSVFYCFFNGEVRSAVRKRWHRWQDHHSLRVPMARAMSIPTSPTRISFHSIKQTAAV

Compared with B1, B2 is 5.9-fold lower in EC50 [nM], 0% HSA (cAMP, HTRF): 0.83 nM for the first, 0.14 nM for the second.

First: B3
Second: B4
The EC50 [nM], 0% HSA (cAMP, HTRF) of the first is 3.3-fold higher: 2.27 nM for the first, 0.68 nM for the second.

First: B5
Second: B6
The EC50 [nM], 0% HSA (cAMP, HTRF) of the first is 2-fold lower: 0.46 nM for the first, 0.9 nM for the second.

Each binder was assayed against human corticotropin-releasing factor 2α receptor (CRF2α receptor) (human), Q13324 (assay: cell-based or functional assay).
Sequence of human corticotropin-releasing factor 2α receptor (CRF2α receptor) (human), Q13324 (Q13324 20-411): as above

Compared with B1, B2 is 5.9-fold lower in CRF2 EC50 (cAMP, HTRF): 0.83 nM for the first, 0.14 nM for the second.

Compared with B3, B4 is 3.3-fold lower in CRF2 EC50 (cAMP, HTRF): 2.27 nM for the first, 0.68 nM for the second.

Going from B5 to B6, the CRF2 EC50 (cAMP, HTRF) rises from 0.46 nM to 0.9 nM (2-fold).

Each binder was assayed against T1, CRF1R receptor (anti-target) (assay: cell-based or functional assay).

First: B1
Second: B2
The “CRF1/CRF2 ratio (of EC50)” value of the first is higher: 68 for the first, 3 for the second.

First: B4
Second: B5
The “CRF1/CRF2 ratio (of EC50)” value of the first is lower: 6 for the first, 134 for the second.

For B6, the “CRF1/CRF2 ratio (of EC50)” value was 2.

First: B1
Second: B2
The “CRF1 EC50 (cAMP, HTRF)” value of the first is 130-fold higher: 56.6 nM for the first, 0.44 nM for the second.

Compared with B4, B5 is 17-fold higher in “CRF1 EC50 (cAMP, HTRF)” value: 4.18 nM for the first, 69.1 nM for the second.

With B6 the “CRF1 EC50 (cAMP, HTRF)” value was 1.43 nM.
